{"source": "patent US8034904B2", "about": "“Anti-IGF-I receptor antibody” (Immunogen Inc., priority 2002, dated 2011)", "molecules": {"B1": {"name": "EM164: murine anti-IGF-I receptor monoclonal antibody, IgG1 with kappa light chain, hybridoma ATCC PTA-4457; heavy SEQ ID NO:7, light SEQ ID NO:8 (antibody)", "heavy": "QVQLQQSGAELVKPGASVKLSCKASGYTFTSYWMHWVKQRPGQGLEWIGEINPSNGRTNYNEKFKRKATLTVDKSSSTAYMQLSSLTSEDSAVYYFARGRPDYYGSSKWYFDVWGAGTTVTVSS", "light": "DVLMTQTPLSLPVSLGDQASISCRSSQSIVHSNVNTYLEWYLQKPGQSPKLLIYKVSNRFSGVPDRFSGSGSGTDFTLRISRVEAEDLGIYYCFQGSHVPPTFGGGTKLEIKR", "modifications": "antibody heavy chain; antibody light chain"}}, "key": {"[1]": {"biological_target": "T1, IGF-I receptor of 3T3 cells (Mus musculus, UniProt Q60751)", "T1 construct": "endogenous in cells; host or cells: 3T3 cells (mouse)", "T1 sequence (Q60751 31-1373)": "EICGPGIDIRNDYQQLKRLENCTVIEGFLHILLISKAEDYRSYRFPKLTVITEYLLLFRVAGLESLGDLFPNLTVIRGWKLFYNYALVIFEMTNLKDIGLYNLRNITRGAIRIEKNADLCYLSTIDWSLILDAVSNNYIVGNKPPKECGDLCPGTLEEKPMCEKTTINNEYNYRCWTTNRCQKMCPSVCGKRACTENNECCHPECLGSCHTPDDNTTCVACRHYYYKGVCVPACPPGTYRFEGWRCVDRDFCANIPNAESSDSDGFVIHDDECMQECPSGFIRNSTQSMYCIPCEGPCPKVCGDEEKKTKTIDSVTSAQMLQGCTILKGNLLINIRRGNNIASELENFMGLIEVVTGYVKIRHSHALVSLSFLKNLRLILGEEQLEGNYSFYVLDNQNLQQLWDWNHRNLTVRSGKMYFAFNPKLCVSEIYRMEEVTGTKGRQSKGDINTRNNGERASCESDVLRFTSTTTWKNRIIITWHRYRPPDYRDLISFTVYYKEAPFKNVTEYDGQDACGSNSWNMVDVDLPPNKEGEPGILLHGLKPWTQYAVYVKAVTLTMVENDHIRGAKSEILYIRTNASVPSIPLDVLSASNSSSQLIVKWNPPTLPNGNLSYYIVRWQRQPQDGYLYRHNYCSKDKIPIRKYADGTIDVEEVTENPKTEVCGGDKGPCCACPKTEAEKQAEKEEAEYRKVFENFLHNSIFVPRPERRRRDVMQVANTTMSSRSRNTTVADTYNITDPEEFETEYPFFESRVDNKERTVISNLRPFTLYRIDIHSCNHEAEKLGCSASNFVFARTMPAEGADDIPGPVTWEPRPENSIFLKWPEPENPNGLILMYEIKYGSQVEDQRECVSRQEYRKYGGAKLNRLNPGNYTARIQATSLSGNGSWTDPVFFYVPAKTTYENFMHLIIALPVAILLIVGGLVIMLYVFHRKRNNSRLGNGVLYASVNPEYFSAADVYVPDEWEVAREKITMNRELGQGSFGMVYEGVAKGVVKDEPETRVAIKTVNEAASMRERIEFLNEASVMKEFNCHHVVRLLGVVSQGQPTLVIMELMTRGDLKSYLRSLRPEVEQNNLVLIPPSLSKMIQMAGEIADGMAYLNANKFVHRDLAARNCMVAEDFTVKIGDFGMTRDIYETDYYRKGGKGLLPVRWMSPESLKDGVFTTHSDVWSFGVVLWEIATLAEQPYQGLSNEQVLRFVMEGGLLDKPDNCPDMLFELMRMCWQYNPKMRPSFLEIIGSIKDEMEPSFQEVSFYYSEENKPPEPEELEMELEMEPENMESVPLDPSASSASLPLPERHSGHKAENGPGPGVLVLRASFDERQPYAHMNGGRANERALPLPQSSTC", "experiment": "Immunoprecipitation of IGF-I receptor from 3T3 cells", "format": "binding", "source_text": "A Western blot of the EM164 antibody immunoprecipitate was detected using a rabbit polyclonal anti-IGF-I receptor beta chain (C-terminus) antibody (Santa Cruz Biotechnology) and a goat-anti-rabbit-IgG-antibody-horseradish peroxidase conjugate, followed by washes and enhanced chemiluminescence (ECL) detection."}, "[2]": {"system": "human IGF-I receptor", "experiment": "FACS binding to cells overexpressing human IGF-I receptor", "settings": "EM164 50-100 nM", "method": "Incubation of EM164 antibody (50-100 nM) in 100 μL cold FACS buffer (1 mg/mL BSA in Dulbecco's MEM medium) was performed using cells overexpressing IGF-I receptor and using cells overexpressing insulin receptor (2×10^5 cells/mL) in a round-bottom 96-well plate for 1 h. The cells were pelleted by centrifugation and washed with cold FACS buffer by gentle flicking, followed by incubation with goat-anti-mouse-IgG-antibody-FITC conjugate (100 μL; 10 μg/mL in FACS buffer) on ice for 1 h. The cells were pelleted, washed, and resuspended in 120 μL of 1% formaldehyde solution in PBS. The plate was analyzed using a FACSCalibur reader (BD Biosciences)."}, "[3]": {"system": "Calu-6 non-small cell lung cancer cells", "experiment": "Growth and survival of Calu-6 cells (MTT assay)", "format": "cell-based, human", "method": "(§1) Several human tumor cell lines were tested in serum-free conditions for their growth and survival response to IGF-I. These cell lines were treated with EM164 antibody in the presence of IGF-I, IGF-II, or serum, and their growth and survival responses were measured using an MTT assay after 2-4 days. Approximately 1500 cells were plated in a 96-well plate in regular medium with serum, which was replaced with serum-free medium the following day (either serum-free RPMI medium supplemented with transferrin and BSA, or phenol-red free medium as specified by Dufourny, B. et al., 1997, J. Biol. Chem., 272, 31163-31171). After one day of growth in serum-free medium, the cells were incubated with about 75 μL of 10 μg/mL antibody for 30 min.-3 h, followed by the addition of 25 μL of IGF-I (or IGF-II or serum) solution to obtain a final concentration of 10 ng/mL IGF-I, or 20 ng/mL IGF-II, or 0.04-10% serum. In some experiments, the cells were stimulated first with IGF-I for 15 min before the addition of EM164 antibody, or both IGF-I and EM164 antibody were added together. The cells were then allowed to grow for another 2-3 days. A solution of MTT (3-(4,5)-dimethylthiazol-2-yl)-2,5-diphenyltetrazolium bromide; 25 μL of a 5 mg/mL solution in PBS) was then added and the cells were returned to the incubator for 2-3 h. The medium was then removed and replaced by 100 μL DMSO, mixed, and the absorbance of the plate was measured at 545 nm."}, "[4]": {"biological_target": "T2, IGF-I receptor (Homo sapiens, UniProt P08069)", "T2 construct": "human breast cancer MCF-7 cells, which expressed IGF-I receptor; endogenous in cells; host or cells: MCF-7 human breast cancer cells", "experiment": "IGF-I-stimulated autophosphorylation of IGF-I receptor in MCF-7 cells (ELISA)", "format": "cell-based", "settings": "20 μg/mL antibody 3 h; 50 ng/mL IGF-I 20 min", "method": "In FIG. 4, the MCF-7 cells were grown in a 12-well plate in regular medium for 3 days, and were then treated with 20 μg/mL EM164 antibody (or anti-B4 control antibody) in serum-free medium for 3 h, followed by stimulation with 50 ng/mL IGF-I for 20 min at 37° C. The cells were then lysed in ice-cold lysis buffer containing protease and phosphatase inhibitors (50 mM HEPES buffer, pH 7.4, 1% NP-40, 1 mM sodium orthovanadate, 100 mM sodium fluoride, 10 mM sodium pyrophosphate, 2.5 mM EDTA, 10 μM leupeptin, 5 μM pepstatin, 1 mM PMSF, 5 mM benzamidine, and 5 μg/mL aprotinin). An ELISA plate was pre-coated with anti-IGF-I receptor beta chain C-terminus monoclonal antibody TC123 and was incubated with the lysate samples for 5 h at ambient temperature to capture IGF-I receptor. The wells containing the captured IGF-I receptor were then washed and incubated with biotinylated anti-phosphotyrosine antibody (PY20; 0.25 μg/mL; BD Transduction Laboratories) for 30 min, followed by washes and incubation with streptavidin-horseradish peroxidase conjugate (0.8 μg/mL) for 30 min. The wells were washed and detected with ABTS/H2O2 substrate."}, "[5]": {"system": "RD (rhabdomyocarcoma) cells", "experiment": "Growth and survival of RD cells (MTT assay)", "format": "cell-based, human", "method": "as §1"}, "[6]": {"system": "Human pancreatic cancer BxPC-3 xenografts", "experiment": "BxPC-3 pancreatic cancer xenograft in SCID/ICR mice", "format": "in vivo, mouse", "method": "Human pancreatic cancer xenografts were established in 5 week-old, female SCID/ICR mice (Taconic) by subcutaneous injections of 10^7 BxPC-3 cells in PBS (day 0). The mice bearing established tumors of 80 mm^3 were then treated with EM164 alone (13 injections of 0.8 mg/mouse, i.v., lateral tail vein, on days 12, 16, 19, 23, 26, 29, 36, 43, 50, 54, 58, 61 and 64), with gemcitabine alone (two injections of 150 mg/kg/mouse, i.p., on days 12 and 19), with a combination of gemcitabine and. EM164 following the above schedules, PBS alone, and a control antibody alone (following the same schedule as EM164) using five mice in each of the five treatment groups."}, "[7]": {"system": "HT-29 colon cancer cells", "experiment": "Growth and survival of HT-29 cells (MTT assay, colony formation)", "format": "cell-based, human", "method": "as §1"}, "[8]": {"system": "NCI-H838 lung cancer cells", "experiment": "Apoptosis: caspase-cleaved cytokeratin CK18 in NCI-H838 cells", "format": "cell-based, human", "settings": "IGF-I or serum, presence vs absence of EM164, 1 day", "method": "For measurement of apoptosis, cleavage of the cytokeratin CK18 protein by caspase was measured in NCI-H838 lung cancer cells incubated with IGF-I or serum in the presence or absence of EM164 for 1 day (FIG. 26)."}, "[9]": {"system": "A 549 cells", "experiment": "Growth and survival of A 549 cells (MTT assay)", "format": "cell-based, human", "settings": "5-10 μg/mL EM164, 10 ng/mL IGF-I", "method": "as §1, with “A solution of MTT (3-(4,5)-dimethylthiazol-2-yl)-2,5-diphenyltetrazolium bromide; 25 μL of a 5 mg/mL solution in PBS) was then added and the cells were returned to the incubator for 2-3 h.” left out"}, "[10]": {"system": "SK-Mel-37 cells", "experiment": "Growth and survival of SK-Mel-37 cells (MTT assay)", "format": "cell-based, human", "settings": "5-10 μg/mL EM164, 10 ng/mL IGF-I", "method": "as §1, with “A solution of MTT (3-(4,5)-dimethylthiazol-2-yl)-2,5-diphenyltetrazolium bromide; 25 μL of a 5 mg/mL solution in PBS) was then added and the cells were returned to the incubator for 2-3 h.” left out"}, "[11]": {"biological_target": "T3, IGF-I receptor on MCF-7 cells (Homo sapiens, UniProt P08069)", "T3 construct": "human breast cancer MCF-7 cells, which expressed IGF-I receptor; endogenous in cells; host or cells: MCF-7 human breast cancer cells", "experiment": "IGF-I displacement assay in MCF-7 cells", "format": "cell-based", "method": "(or at 4° C.) for 1 to 2 h. […] (or at 4° C.) for 30 min to 4 h. Cells were then washed with PBS and lysed in lysis buffer containing 1% NP-40 at 4° C."}, "[12]": {"settings": "5-10 μg/mL EM164, 10 ng/mL IGF-I"}, "[13]": {"settings": "5-10 μg/mL EM164, MTT or colony formation assay"}}}
{"molecule": "B1", "values": [{"measurement": "binding to IGF-I receptor (immunoprecipitation)", "setting": "[1]", "result": "did not bind"}, {"measurement": "fluorescence shift (FACS)", "setting": "[2]", "result": "strong fluorescence shift"}, {"measurement": "Inhibition by EM164 antibody of IGF-I-stimulated growth in serum-free medium", "setting": "[3]; [12]", "result": 85, "unit": "%"}, {"measurement": "% Inhibition by EM164 antibody of Growth/survival of cells in 1.25-10% serum", "setting": "[3]; [13]", "result": "Yes"}, {"measurement": "inhibition of the IGF-I stimulated autophosphorylation of IGF-I receptor", "setting": "[4]", "result": "complete inhibition"}, {"measurement": "Inhibition by EM164 antibody of IGF-I-stimulated growth in serum-free medium", "setting": "[5]; [12]", "result": "85-100%"}, {"measurement": "% Inhibition by EM164 antibody of Growth/survival of cells in 1.25-10% serum", "setting": "[5]; [13]", "result": "Yes"}, {"measurement": "day on which measurable tumor regrowth was seen in more than one animal", "setting": "[6]; BxPC-3 xenografts", "result": 43, "unit": "days"}, {"measurement": "total regression of tumor xenografts (animals)", "setting": "[6]; EM164 0.8 mg/mouse i.v. x13, gemcitabine 150 mg/kg i.p. days 12 and 19, five mice per group", "result": "4 of 5"}, {"measurement": "mean tumor volumes on day 74 in comparison with the control treatments", "setting": "[6]; P=0.029 (EM164) and 0.002 (combination), two-tailed T-test", "result": "significantly smaller"}, {"measurement": "growth of established BxPC-3 xenografts", "setting": "[6]; another study, intraperitoneal injections", "result": "inhibited the growth"}, {"measurement": "inhibition of the growth of established BxPC-3 xenografts, intraperitoneal vs intravenous administration", "setting": "[6]; mouse, in vivo", "result": "equivalent inhibition"}, {"measurement": "inhibition of the growth of established BxPC-3 xenografts, murine vs humanized", "setting": "[6]; mouse, in vivo", "result": "equivalent inhibition"}, {"measurement": "colony size of HT29 colon cancer cells", "setting": "[7]", "result": "greatly reduced"}, {"measurement": "Inhibition by EM164 antibody of IGF-I-stimulated growth in serum-free medium", "setting": "[7]; HT-29, 5-10 μg/mL EM164, 10 ng/mL IGF-I", "result": 60, "unit": "%"}, {"measurement": "% Inhibition by EM164 antibody of Growth/survival of cells in 1.25-10% serum", "setting": "[7]; HT-29, 5-10 μg/mL EM164, MTT or colony formation assay", "result": "Yes"}, {"measurement": "caspase-cleaved CK18 levels", "setting": "[8]", "result": "greater cleaved CK18 levels"}, {"measurement": "Inhibition by EM164 antibody of IGF-I-stimulated growth in serum-free medium", "setting": "[9]", "result": 80, "unit": "%"}, {"measurement": "Inhibition by EM164 antibody of IGF-I-stimulated growth in serum-free medium", "setting": "[10]", "result": 85, "unit": "%"}, {"measurement": "displacement of pre-bound biotinylated IGF-I", "setting": "[11]; 4° C., 2 h", "result": "about 50%"}, {"measurement": "displacement of pre-bound biotinylated IGF-I", "setting": "[11]; 37° C., within 30 min", "result": 90, "unit": "%"}, {"measurement": "displacement of pre-bound biotinylated IGF-I", "setting": "[11]; 37° C., within 4 h", "result": "~100", "unit": "%"}]}
